Assays:
[1] = molecular target: HLA-B*08:01; test: IEDB peptide-MHC binding, purified MHC/competitive/radioactivity; filed as Kd, often an IC50 or EC50 that approximates it; ≥ and ≤ were set here for values at or beyond the usual limits of such assays
[2] = molecular target: HLA-B*57:01; test: as above
[3] = molecular target: HLA-B*08:01; test: IEDB peptide-MHC binding, purified MHC/direct/fluorescence; filed as Kd, often an IC50 or EC50 that approximates it; ≥ and ≤ were set here for values at or beyond the usual limits of such assays
[4] = molecular target: HLA-A*69:01; test: as above
[5] = molecular target: HLA-A*26:01; test: as above
[6] = molecular target: HLA-A*03:01; test: as above
[7] = molecular target: HLA-B*58:01; test: as above
[8] = molecular target: HLA-B*44:02; test: as above
[9] = molecular target: HLA-A*01:01; test: as above
[10] = molecular target: HLA-B*15:01; test: as above
[11] = molecular target: HLA-A*02:01; test: as above
[12] = molecular target: HLA-A*24:03; test: as above
[13] = molecular target: HLA-B*07:02; test: as above
[14] = molecular target: HLA-B*40:01; test: as above
[15] = molecular target: HLA-A*11:01; test: as above
[16] = molecular target: HLA-B*27:05; test: as above
[17] = molecular target: HLA-A*11:01; test: IEDB peptide-MHC binding, purified MHC/competitive/fluorescence; ≥ and ≤ were set here for values at or beyond the usual limits of such assays
[18] = molecular target: HLA-A*24:02; test: as above
[19] = molecular target: HLA-A*31:01; test: IEDB peptide-MHC binding, purified MHC/direct/fluorescence; filed as Kd, often an IC50 or EC50 that approximates it; ≥ and ≤ were set here for values at or beyond the usual limits of such assays
[20] = molecular target: HLA-B*35:01; test: IEDB peptide-MHC binding, purified MHC/competitive/radioactivity; filed as Kd, often an IC50 or EC50 that approximates it; ≥ and ≤ were set here for values at or beyond the usual limits of such assays
[21] = molecular target: HLA-B*53:01; test: as above
[22] = molecular target: HLA-A*01:01; test: as above; conditions: source organism: Dengue virus 4 Philippines/H241/1956
[23] = molecular target: HLA-B*15:01; test: as above
[24] = molecular target: HLA-A*02:03; test: as above; conditions: source organism: Dengue virus 1 Brazil/97-11/1997
[25] = molecular target: HLA-A*02:01; test: IEDB peptide-MHC binding, purified MHC/competitive/fluorescence; ≥ and ≤ were set here for values at or beyond the usual limits of such assays
[26] = molecular target: HLA-B*48:01; test: IEDB peptide-MHC binding, purified MHC/direct/fluorescence; filed as Kd, often an IC50 or EC50 that approximates it; ≥ and ≤ were set here for values at or beyond the usual limits of such assays; conditions: source organism: Yellow fever virus
[27] = molecular target: HLA-B*54:01; test: IEDB peptide-MHC binding, purified MHC/competitive/radioactivity; filed as Kd, often an IC50 or EC50 that approximates it; ≥ and ≤ were set here for values at or beyond the usual limits of such assays; conditions: source organism: Mammarenavirus lassaense
[28] = molecular target: HLA-A*03:01; test: IEDB peptide-MHC binding, purified MHC/competitive/fluorescence; filed as Kd, often an IC50 or EC50 that approximates it; ≥ and ≤ were set here for values at or beyond the usual limits of such assays
[29] = molecular target: HLA-A*26:01; test: as above; conditions: source organism: Bacillus anthracis str. A0488
[30] = molecular target: HLA-A*32:01; test: IEDB peptide-MHC binding, purified MHC/competitive/radioactivity; filed as Kd, often an IC50 or EC50 that approximates it; ≥ and ≤ were set here for values at or beyond the usual limits of such assays; conditions: source organism: Vaccinia virus WR
[31] = molecular target: HLA-B*18:01; test: IEDB peptide-MHC binding, purified MHC/direct/fluorescence; filed as Kd, often an IC50 or EC50 that approximates it; ≥ and ≤ were set here for values at or beyond the usual limits of such assays; conditions: source organism: dengue virus type 1
[32] = molecular target: HLA-B*15:01; test: IEDB peptide-MHC binding, purified MHC/competitive/fluorescence; filed as Kd, often an IC50 or EC50 that approximates it; ≥ and ≤ were set here for values at or beyond the usual limits of such assays; conditions: source organism: Yersinia bercovieri ATCC 43970
[33] = molecular target: HLA-A*02:01; test: as above; conditions: source organism: Yersinia bercovieri ATCC 43970
[34] = molecular target: HLA-B*39:01; test: as above; conditions: source organism: Yersinia bercovieri ATCC 43970
[35] = source organism: Vaccinia virus WR
[36] = source organism: Dengue virus 1 Brazil/97-11/1997
[37] = source organism: Toxoplasma gondii
[38] = source organism: Sudan ebolavirus
[39] = source organism: Zaire ebolavirus
[40] = source organism: Vibrio parahaemolyticus
[41] = source organism: Dengue virus 3 Martinique/1243/1999
[42] = source organism: Dengue virus 4 Philippines/H241/1956
[43] = source organism: Campylobacter jejuni RM1221
[44] = source organism: Vaccinia virus
[45] = source organism: Vaccinia virus Copenhagen
[46] = source organism: Giardia lamblia ATCC 50803
[47] = source organism: Shigella flexneri

For ALMRRIAVV, the Kd [1, 35] was 1.35 µM.

Sequence ATRLENIMW has a Kd [2, 36] of 0.00231 µM.

With AYMDRKSFK the Kd [3, 37] was ≥ 20 µM, the Kd [4, 37] was ≥ 20 µM and the Kd [5, 37] was ≥ 20 µM. The Kd [6, 37] was 14.7 µM, the Kd [7, 37] was ≥ 20 µM and the Kd [8, 37] was ≥ 20 µM. For the same sequence, the Kd [9, 37] was ≥ 20 µM, the Kd [10, 37] was ≥ 20 µM and the Kd [11, 37] was ≥ 20 µM. The Kd [12, 37] was 2.43 µM, the Kd [13, 37] was ≥ 20 µM and the Kd [14, 37] was ≥ 20 µM. The Kd [15, 37] was ≥ 5 µM and the Kd [16, 37] was ≥ 20 µM.

CPGDYAFHK showed an IC50 [17, 38] of 55.3 µM.

Work on DAVLYYHMM yielded an IC50 [18, 39] of 3.14 µM.

In the case of DNTQSEHSF, the IC50 [18, 39] is reported as 49.7 µM.

With DYRFRFRSV the Kd [1, 35] was 0.683 µM.

EEDLPVTWR was tested, and the Kd [3, 40] was ≥ 20 µM, the Kd [4, 40] was ≥ 20 µM and the Kd [5, 40] was ≥ 20 µM. The Kd [6, 40] was ≥ 20 µM, the Kd [7, 40] was ≥ 20 µM and the Kd [8, 40] was ≥ 20 µM. For the same sequence, the Kd [9, 40] was ≥ 20 µM, the Kd [10, 40] was ≥ 20 µM and the Kd [11, 40] was ≥ 20 µM. For the same sequence, the Kd [13, 40] was ≥ 20 µM, the Kd [14, 40] was ≥ 20 µM and the Kd [19, 40] was ≥ 20 µM. For the same sequence, the Kd [15, 40] was ≥ 20 µM and the Kd [16, 40] was ≥ 20 µM.

Sequence EPWLKNNQF has a Kd [20, 41] of 1.03 µM and a Kd [21, 41] of 2.58 µM.

In the case of EYRFLVINR, the IC50 [18, 35] is reported as 57.6 µM and the IC50 [17, 35] is reported as ≥ 490 µM.

FALLAGFMAY gave a Kd [22] of 13.5 µM, a Kd [23, 42] of 0.00641 µM and a Kd [20, 42] of 0.0133 µM. The Kd [21, 42] was 3.15 µM.

For FFKFSFMYI, the Kd [1, 35] was 0.84 µM.

In the case of GLNSRSTSL, the Kd [1, 36] is reported as 0.0147 µM and the Kd [24] is reported as 0.0164 µM.

Work on GSRAIWYMW yielded a Kd [2, 42] of 0.00172 µM.

With GTSITQKGII the Kd [2, 36] was 9.33 µM.

HRRLRNKRL showed a Kd [1, 35] of 0.0284 µM.

In the case of ICGLRQLAN, the IC50 [18, 39] is reported as 16.2 µM.

For IILFQRTFS, the IC50 [18, 39] was ≥ 294 µM and the IC50 [25, 39] was ≥ 81.4 µM.

IMAIGIVSIL was tested, and the Kd [1, 36] was 0.445 µM and the Kd [23, 36] was 0.0272 µM.

In the case of IYDYLRLLY, the Kd ([3]; source organism: Clostridium botulinum NCTC 2916) is reported as ≥ 20 µM, the Kd [4, 43] is reported as ≥ 20 µM and the Kd [6, 43] is reported as ≥ 20 µM. The Kd [7, 43] was ≥ 20 µM, the Kd [8, 43] was ≥ 20 µM and the Kd [9, 43] was 5.13 µM. For the same sequence, the Kd [10, 43] was ≥ 20 µM, the Kd [11, 43] was ≥ 20 µM and the Kd [13, 43] was ≥ 20 µM. The Kd [14, 43] was ≥ 20 µM, the Kd [19, 43] was ≥ 20 µM and the Kd [16, 43] was ≥ 20 µM.

KDVSYNDYF showed an IC50 [18, 44] of 41.4 µM.

KMRPMFAVGL was tested, and the Kd [1, 36] was 4.58 µM.

For KRVVASLMR, the Kd [26] was ≥ 20 µM.

Work on KTSLCLMMIL yielded a Kd ([2]; source organism: Dengue virus 3 Sri Lanka/1266/2000) of 0.00968 µM.

Work on LNLSKFMMV yielded a Kd [1, 35] of 0.102 µM.

Sequence MCISLSTAI has a Kd [27] of 0.601 µM.

MKMKKKTWL was tested, and the Kd [1, 42] was 0.0629 µM.

Sequence MLILNFCKL has a Kd [1, 45] of 0.00391 µM.

In the case of MPSVVETLEQ, the Kd [20, 36] is reported as 6.11 µM and the Kd [21, 36] is reported as 1.2 µM.

For MTIASVPTSR, the Kd ([28]; source organism: Influenza A virus (A/equine/California/8560/2002(H3N8))) was 1.01 µM.

NFAEGVIAF showed an IC50 [18, 38] of 4.18 µM.

Sequence NFMQRIISL has a Kd [1, 35] of 1.49 µM.

With NNIGIEYSK the IC50 [17, 44] was ≥ 173 µM.

NTVKSFLNF was tested, and the Kd [29] was 0.269 µM.

Sequence RASFIEVKTC has a Kd [2, 36] of 0.0537 µM.

In the case of RSMYRIPPF, the Kd [1, 35] is reported as 0.157 µM and the Kd [30] is reported as 0.000726 µM.

With RTDPVIDNI the Kd [3, 46] was ≥ 20 µM, the Kd [4, 46] was ≥ 20 µM and the Kd [5, 46] was ≥ 20 µM. The Kd [6, 46] was ≥ 20 µM, the Kd [8, 46] was ≥ 20 µM and the Kd [10, 46] was ≥ 20 µM. The Kd [11, 46] was ≥ 20 µM, the Kd [12, 46] was 2.75 µM and the Kd [13, 46] was ≥ 20 µM. The Kd [14, 46] was ≥ 20 µM, the Kd [19, 46] was ≥ 20 µM and the Kd [15, 46] was ≥ 20 µM. For the same sequence, the Kd [16, 46] was ≥ 20 µM.

For RWGGTCRIL, the IC50 [18, 38] was 0.23 µM.

With SEHTGREIV the Kd [31] was 2.04 µM and the Kd ([8]; source organism: dengue virus type 1) was ≥ 20 µM.

In the case of SETAGNNNT, the IC50 [25, 39] is reported as ≥ 98.4 µM and the IC50 [17, 39] is reported as ≥ 363 µM.

In the case of SFQQTNAMV, the IC50 [18, 39] is reported as 18.1 µM and the IC50 [25, 39] is reported as 31.7 µM.

SILSSFFSL gave a Kd [1, 35] of 0.229 µM.

For SNTTGKLIW, the IC50 [18, 39] was 9.97 µM.

VLKPSVIEE was tested, and the IC50 [17, 35] was ≥ 257 µM.

Sequence VLRTKITSL has a Kd [1, 35] of 0.00092 µM.

Work on VMAVGLVSIL yielded a Kd [1, 41] of 0.154 µM.

Sequence VMLIGIEIL has an IC50 [18, 35] of 37.6 µM and an IC50 [25, 35] of 0.161 µM.

In the case of VPFIRNPNK, the IC50 [17, 35] is reported as 47.2 µM.

VVISKKDTY was tested, and the Kd [3, 47] was ≥ 20 µM, the Kd [4, 47] was ≥ 20 µM and the Kd [5, 47] was 6.93 µM. For the same sequence, the Kd [6, 47] was ≥ 20 µM, the Kd [7, 47] was ≥ 20 µM and the Kd [8, 47] was ≥ 20 µM. For the same sequence, the Kd [9, 47] was ≥ 20 µM, the Kd [10, 47] was ≥ 20 µM and the Kd [11, 47] was ≥ 20 µM. The Kd [13, 47] was ≥ 20 µM, the Kd [14, 47] was ≥ 20 µM and the Kd [19, 47] was 5.5 µM. For the same sequence, the Kd [15, 47] was 2.96 µM and the Kd [16, 47] was ≥ 20 µM.

With VVLDLFARK the Kd ([28]; source organism: Shigella flexneri 2a str. 301) was 0.175 µM.

WCRLKFHIV was tested, and the Kd [1, 45] was 0.0819 µM.

WFSRENSYSG showed a Kd [2, 41] of 7 µM.

WQMFMKVTV showed a Kd [32] of 1.29 µM, a Kd [33] of 0.0156 µM and a Kd [34] of 0.389 µM.

WTSGASTSQE was tested, and the Kd [2, 36] was 0.206 µM.

Source: the Immune Epitope Database (IEDB)
